Results reported in paper PMC3605776.

T1: KSRP KH3 (Homo sapiens, UniProt Q92945 322-386)
T1 sequence: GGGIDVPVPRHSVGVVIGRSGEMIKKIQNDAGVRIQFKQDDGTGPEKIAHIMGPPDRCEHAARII

T2: KSRP KH1-KH4 (referred to as KSRP) (Homo sapiens, UniProt Q92945 68-525)
T2 sequence: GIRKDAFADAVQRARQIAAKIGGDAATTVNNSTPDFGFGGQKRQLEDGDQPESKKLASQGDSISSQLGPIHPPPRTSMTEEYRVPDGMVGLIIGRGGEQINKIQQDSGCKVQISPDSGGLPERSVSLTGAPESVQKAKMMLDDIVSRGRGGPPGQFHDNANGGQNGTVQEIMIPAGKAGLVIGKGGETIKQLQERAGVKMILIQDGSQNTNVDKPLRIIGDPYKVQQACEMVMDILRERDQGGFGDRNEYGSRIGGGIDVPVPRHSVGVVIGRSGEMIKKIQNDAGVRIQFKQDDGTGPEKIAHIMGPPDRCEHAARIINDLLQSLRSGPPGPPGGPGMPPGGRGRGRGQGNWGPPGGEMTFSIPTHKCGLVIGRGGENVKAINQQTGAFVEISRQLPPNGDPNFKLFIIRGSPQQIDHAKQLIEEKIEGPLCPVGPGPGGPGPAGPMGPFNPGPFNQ


Assays:
[1] = target: T1, KSRP KH3; test: NMR structure, NMR titration, ITC
[2] = target: T2, KSRP KH1-KH4 (referred to as KSRP); test: NMR 13C-1H
[3] = target: T1, KSRP KH3; test: NMR titration

Binder | binding result [1] | binding result [2] | binding result [3]
AGGGU (ssRNA) | binds | binds | 
AGAGU (ssRNA) [AGGGU G3A] |  |  | binds
AGUGU (ssRNA) [AGGGU G3U] |  |  | binds
